Assay results reported in US20260041793A1, “VIRAL VECTOR” (University of Sheffield, priority 2022, published 2026).

B1: GCAGAGGAUCACCACGCUAUU UUCAAGAGA AAUAGCGUGGUGAUCCUCUGC (nucleic acid)
chain 1: GCAGAGGATCACCACGCTATT
chain 2: AAUAGCGUGGUGAUCCUCUGC
chain 3: GCAGAGGAUCACCACGCUAUUUUCAAGAGAAAUAGCGUGGUGAUCCUCUGC
modifications: expressed or natural sequence; chain 1: target site or template, no part of the molecule
notes: shRNA targeting SRSF1
B2: GGGCCCAGAAGUCCAAGUUAU UUCAAGAGA AUAACUUGGACUUCUGGGCCC (nucleic acid)
chain 1: GGGCCCAGAAGTCCAAGTTAT
chain 2: AUAACUUGGACUUCUGGGCCC
chain 3: GGGCCCAGAAGUCCAAGUUAUUUCAAGAGAAUAACUUGGACUUCUGGGCCC
modifications: expressed or natural sequence; chain 1: target site or template, no part of the molecule
notes: shRNA targeting SRSF1
B3: GGAAGAUCUCGAUCUCGAAGC UUCAAGAGA GCUUCGAGAUCGAGAUCUUCC (nucleic acid)
chain 1: GGAAGATCTCGATCTCGAAGC
chain 2: GCUUCGAGAUCGAGAUCUUCC
chain 3: GGAAGAUCUCGAUCUCGAAGCUUCAAGAGAGCUUCGAGAUCGAGAUCUUCC
modifications: expressed or natural sequence; chain 1: target site or template, no part of the molecule
notes: shRNA targeting SRSF1

System: SRSF1
Assay: Western immunoblotting of SRSF1 in human cells co-transfected with scAAV plasmids and C9ORF72-repeat reporter
Assay type: cell-based
Conditions: co-transfected with sense or antisense C9ORF72-repeat reporter, FIG. 4

Depletion of SRSF1, efficient depletion of SRSF1:
B1, B2, B3
